± gives the standard deviation of the averaged measurements.
Columns and labels:
Saccharomyces cerevisiae [1] = assay: protein stability index of tFT-peptide fusion (C-terminal peptide) (PSI (0-1 scale)); higher = more stable (slower turnover)
Experimental: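 MPS profiling in S. cerevisiae of the tFT-X12 degron library: putative degron peptides plus stable controls, 12 aa, fused to the C-terminus of a sfGFP-mCherry timer. Cells are FACS-sorted into 8 mCherry/sfGFP bins and deep-sequenced. PSI runs from 0 (unstable) to 1 (stable). Backgrounds are wild type, das1Δ and doa10Δ at 30 °C, and wild type, das1Δ, cdc34-1 and cdc53-1 at 37 °C; 2-3 technical replicates each.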

Saccharomyces cerevisiae [2] = assay: as above; settings: genetic background: wild type; temperature: 30 C
[3] = genetic background: cdc34-1, temperature: 37 C
[4] = genetic background: cdc53-1, temperature: 37 C
[5] = genetic background: das1 deletion, temperature: 30 C
[6] = genetic background: das1 deletion, temperature: 37 C
[7] = genetic background: doa10 deletion, temperature: 30 C
[8] = genetic background: wild type, temperature: 30 C
[9] = genetic background: wild type, temperature: 37 C
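Note: PSI is a weighted mean of sequencing reads over stability bins, variants kept only with over 10 reads, mCherry proximal and sfGFP distal, peptide attached via GGGS linker.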

Row | Sequence | protein stability index (Saccharomyces cerevisiae [2]) | further results
1 | APLFPPPPARSL |  | protein stability index (Saccharomyces cerevisiae [1]; [3]): 0.652 ± 0.034; protein stability index (Saccharomyces cerevisiae [1]; [4]): 0.7023 ± 0.0017; protein stability index (Saccharomyces cerevisiae [1]; [5]): 0.661 ± 0.014; protein stability index (Saccharomyces cerevisiae [1]; [6]): 0.704 ± 0.011; protein stability index (Saccharomyces cerevisiae [1]; [7]): 0.692 ± 0.017; protein stability index (Saccharomyces cerevisiae [1]; [8]): 0.677 ± 0.03; protein stability index (Saccharomyces cerevisiae [1]; [9]): 0.688 ± 0.041
2 | RDTTQRRRKTAA |  | protein stability index (Saccharomyces cerevisiae [1]; [3]): 0.657 ± 0.039; protein stability index (Saccharomyces cerevisiae [1]; [4]): 0.662 ± 0.026; protein stability index (Saccharomyces cerevisiae [1]; [5]): 0.6608 ± 0.0048; protein stability index (Saccharomyces cerevisiae [1]; [6]): 0.6583 ± 0.005; protein stability index (Saccharomyces cerevisiae [1]; [7]): 0.443 ± 0.0084; protein stability index (Saccharomyces cerevisiae [1]; [8]): 0.448 ± 0.012; protein stability index (Saccharomyces cerevisiae [1]; [9]): 0.60824 ± 0.00016
3 | TGPVFVSFRLLH |  | protein stability index (Saccharomyces cerevisiae [1]; [3]): 0.703 ± 0.065; protein stability index (Saccharomyces cerevisiae [1]; [4]): 0.752 ± 0.012; protein stability index (Saccharomyces cerevisiae [1]; [5]): 0.67 ± 0.066; protein stability index (Saccharomyces cerevisiae [1]; [6]): 0.737 ± 0.024; protein stability index (Saccharomyces cerevisiae [1]; [7]): 0.384 ± 0.015; protein stability index (Saccharomyces cerevisiae [1]; [8]): 0.405 ± 0.035; protein stability index (Saccharomyces cerevisiae [1]; [9]): 0.627 ± 0.0095
4 | PLRPAPVLYPAF | 0.654 ± 0.012 | 
5 | GGQEEWFGGAWL | 0.727 ± 0.036 | 
6 | PLPALRPGAAPH | 0.7457 ± 0.0023 | 
7 | TIIPRHTFLPAP | 0.723 ± 0.036 | 
8 | VPSCWVSFPPSP | 0.732 ± 0.04 | 
9 | KADVSIRYGINN | 0.714 ± 0.074 | 
10 | PLPPPPTPPVPV | 0.672 ± 0.015 | 
11 | KKKVAITPQQTR | 0.685 ± 0.23 | 
12 | MKRMIKREIKIK | 0.679 ± 0.089 | 
13 | KNKKKKKRRTRK | 0.732 ± 0.067 | 
14 | ARADILLLTWGV | 0.604 ± 0.027 | 
15 | SHRTRPSQTPTQ | 0.643 ± 0.05 | 
16 | SRNRYSSPPVFI | 0.644 ± 0.039 | 
17 | SPRHAGSSAWRP | 0.674 ± 0.064 | 
18 | WPRPSLPPLYAP | 0.685 ± 0.051 | 
19 | LPPPAAPPPALA | 0.691 ± 0.032 | 
20 | HSDRPSPTRPQP | 0.6431 ± 0.0029 | 
21 | LDARYRSSVGFK | 0.68876 ± 0.00018 | 
22 | WPGRTGANTRSG | 0.671 ± 0.11 | 
23 | GRYAGFESRFGA | 0.666 ± 0.018 | 
24 | QNHKSYQTQDHN | 0.616 ± 0.051 | 
25 | RIPSKSHAWVLV | 0.483 ± 0.058 | 
26 | NDGSDYRFLSLK | 0.706 ± 0.011 | 

Row | Sequence | protein stability index (Saccharomyces cerevisiae [2]) | further results
27 | VLGGVWAWWVGF | 0.663 ± 0.022 | 
28 | VLAGVVGQARWW | 0.731 ± 0.015 | 
29 | KDRVGYKEIITG | 0.695 ± 0.028 | 
30 | LIHCVSTFRCGE | 0.622 ± 0.026 | 
31 | PSGCIPCNVGVS | 0.705 ± 0.099 | 
32 | KSNRCVQSKRQQ | 0.686 ± 0.037 | 
33 | HVTGFVQRYLCH | 0.711 ± 0.092 | 
34 | LVVEYFLCGSIS | 0.532 ± 0.035 | 
35 | ATQPPPPPLPPI | 0.636 ± 0.052 | 
36 | RIWKKKRYNEKS | 0.681 ± 0.12 | 
37 | LHEHHSFCFRLL | 0.658 ± 0.1 | 
38 | VRPPPPPRSSPL | 0.742 ± 0.055 | 
39 | LPLPVPSLPSAP | 0.728 ± 0.019 | 
40 | KLGNVRGPSYSL | 0.709 ± 0.056 | 
41 | PPAFPPPPSPPP | 0.636 ± 0.091 | 
42 | LTWCGVSEAVIA | 0.50795 ± 0.00033 | 
43 | PQWFPNYLRLLL | 0.517 ± 0.041 | 
44 | AISCPFIRFSSL | 0.614 ± 0.0091 | 
45 | LRGGGGIVVGVV | 0.563 ± 0.012 | 
46 | VGGFCSWVVAWF | 0.717 ± 0.1 | 
47 | PCSVLVWGVLLP | 0.622 ± 0.032 | 
48 | KNTKKKNRKKKN | 0.7419 ± 0.0026 | 
49 | PRCPSTPQPEHH | 0.739 ± 0.027 | 
50 | VLFCFAHSASFL | 0.536 ± 0.066 | 
51 | PAPRPPSPLSAP | 0.687 ± 0.039 | 
52 | PAAPGLDLRHDP | 0.623 ± 0.037 | 

Row | Sequence | protein stability index (Saccharomyces cerevisiae [2]) | further results
53 | HHLPPRTPPHNS | 0.657 ± 0.037 | 
54 | ENPSTIDLSARS | 0.656 ± 0.04 | 
55 | KKHNGHNHQNNF | 0.684 ± 0.019 | 
56 | CKGIGLGGGVVS | 0.599 ± 0.033 | 
57 | IDMGEQTGKMIN | 0.72 ± 0.012 | 
58 | LSLTIYVSELFR | 0.587 ± 0.0084 | 
59 | APPPPLPAPQLR | 0.6186 ± 0.0011 | 
60 | TGKRADGGAEGG | 0.686 ± 0.0086 | 
61 | GAGNVGSGCGGG | 0.631 ± 0.035 | 
62 | VLPPTPLTPVLP | 0.676 ± 0.055 | 
63 | STNLITPPITNI | 0.677 ± 0.011 | 
64 | ASRWVLLGGGGV | 0.693 ± 0.03 | 
65 | RKINKQKRTKEE | 0.6449 ± 0.0023 | 
66 | QLPPRLSRRLPP | 0.741 ± 0.17 | 
67 | CEHRTPLMFKRG | 0.686 ± 0.048 | 
68 | PPPPRVLSPAWS | 0.649 ± 0.072 | 
69 | AYRLAFYGCVMR | 0.514 ± 0.02 | 
70 | VHHFCSPPLPPP | 0.732 ± 0.0095 | 
71 | SKRSYEEGNIVY | 0.672 ± 0.028 | 
72 | IKCCIGCSSICG | 0.692 ± 0.042 | 
73 | STLRGTTESERK | 0.665 ± 0.057 | 
74 | WSWEVTSSVCRI | 0.732 ± 0.058 | 
75 | PPPPSLAPRSAL | 0.724 ± 0.048 | 
76 | SKKRKRNKKKGE | 0.74 ± 0.098 | 
77 | EVCAGDDIRYLV | 0.645 ± 0.026 | 
78 | LHHYPLVISGVS | 0.47 ± 0.12 | 

Row | Sequence | protein stability index (Saccharomyces cerevisiae [2]) | further results
79 | SKKARIYIKKRR | 0.683 ± 0.053 | 
80 | CPGGQVECGVLC | 0.652 ± 0.021 | 
81 | TPLPPEHLPRSR | 0.661 ± 0.031 | 
82 | RPPRPGFCLFLP | 0.652 ± 0.0067 | 
83 | PPLPPRPQTHLH | 0.728 ± 0.074 | 
84 | RVNERNAEAGGD | 0.641 ± 0.043 | 
85 | PPRPPPPHHVPS | 0.677 ± 0.093 | 
86 | NSEKKKKRKEKK | 0.731 ± 0.024 | 
87 | LSPPLRFPPPPP | 0.709 ± 0.073 | 
88 | SEAKRMSGSSAN | 0.635 ± 0.041 | 
89 | MLYNQDIGQELL | 0.652 ± 0.058 | 
90 | AGGSVCRESLEV | 0.694 ± 0.064 | 
91 | TIVQNLEIVQAR | 0.648 ± 0.13 | 
92 | AGRGEIVINGKR | 0.615 ± 0.07 | 
93 | SLSIWSTSPPAA | 0.691 ± 0.0086 | 
94 | EKTKEEKKLRTK | 0.647 ± 0.046 | 
95 | LVLSRSGPFSHL | 0.7 ± 0.073 | 
96 | VHSPLVHILSCS | 0.582 ± 0.012 | 
97 | PPPPPPPPCGTP | 0.633 ± 0.014 | 
98 | RIEKNTKRSEIW | 0.665 ± 0.021 | 
99 | CGRVWAENGSQG | 0.689 ± 0.008 | 
100 | GGGLGGAGFRGG | 0.661 ± 0.051 | 
101 | FFSWFGCSCYAR | 0.779 ± 0.023 | 
102 | EKRDKREVRPGK | 0.6626 ± 0.0055 | 
103 | GSLHGTSAPPRF | 0.731 ± 0.15 | 

From the supplement of paper PMC10724198
